# Measurements taken from the RNAGym collection of RNA variant scans (doi:10.7554/elife.80360).
# B1: CPEB3 Ribozyme (parent)
# chain: GGGGGCCACAGCAGAAGCGUUCACGUCGCGGCCCCUGUCAGAUUCUGGUGAAUCUGCGAAUUCUGCUGU
# Variants of: B1
# Assay: self-cleavage, relative activity (ratio to wild type); higher = more cleavage; co-transcriptional
row,Variant,self-cleavage
1,C24U,0.844
2,C24G,0.499
3,C24A,0.77
4,G25A C45A,0.208
5,C24U C27U,0.193
6,C24U C27G,0.189
7,C24U G31A,0.316
8,C24U G31U,0.271
9,C24U A60C,0.254
10,C24A G48C,0.786
11,C24A G48U,0.737
12,C24A G48A,0.758
13,C24A C32A,0.31
14,C24A C32U,0.729
15,C24U A51C,0.782
16,C24U U69G,0.909
17,C24U U69A,0.895
18,G25A C32G,0.131
19,G25A C32U,0.255
20,C24G G65A,0.26
21,C24G C45A,0.485
22,C24G C45G,0.436
23,C24G C45U,0.464
24,G25A C34U,0.185

row,Variant,self-cleavage
1,G25A C34A,0.196
2,G25A C29G,0.216
3,G25A C29U,0.163
4,G25A C29A,0.181
5,C24A G50A,0.719
6,C24A G50C,0.665
7,C24G G41C,0.18
8,C24A G25C,0.122
9,C24A G25A,0.13
10,C24A G25U,0.17
11,C24G U49C,0.523
12,C24G C32U,0.435
13,C24G C32G,0.239
14,C24U A52C,0.791
15,C24G C27G,0.192
16,C24G C27A,0.201
17,C24G C27U,0.149
18,C24A C54U,0.854
19,C24U U67G,0.761
20,C24U U67C,0.833
21,C24G U64C,0.315
22,C24G U64G,0.338
23,G25A C39G,0.16
24,G25A C39A,0.237

row,Variant,self-cleavage
1,G25A C39U,0.229
2,C24A U46G,0.816
3,C24A U46C,0.754
4,C24A U46A,0.793
5,C24U C34A,0.263
6,C24U C34G,0.283
7,C24U C34U,0.858
8,C24U G47U,0.909
9,C24U G47A,0.869
10,C24A G58U,0.773
11,C24A G58A,0.4
12,C24A G30A,0.217
13,C24A G30U,0.159
14,G25A A52G,0.193
15,G25A A52U,0.213
16,G25A A52C,0.253
17,C24U G37U,0.251
18,C24A C27A,0.16
19,C24A C27G,0.105
20,C24G G31A,0.185
21,C24G G31C,0.134
22,C24G C63U,0.339
23,C24G C63A,0.237
24,C24G C63G,0.199

row,Variant,self-cleavage
1,C24A A52G,0.772
2,A23U U61A,0.918
3,A23U U61G,0.881
4,A23U U46G,1
5,A23U U46C,0.964
6,A23U U46A,0.955
7,C24G C66G,0.28
8,C24G C66A,0.24
9,C24A G28A,0.187
10,C24A G28C,0.129
11,C24A G28U,0.127
12,G25A G30C,0.219
13,G25A G30A,0.155
14,C24G U61A,0.173
15,C24G U61G,0.306
16,C24G U61C,0.284
17,G25A C57A,0.223
18,G25A C57U,0.205
19,C24G C34U,0.57
20,C24G C34A,0.271
21,C24G C34G,0.184
22,C24A G56A,0.52
23,C24A G56U,0.576
24,C24A G56C,0.31

row,Variant,self-cleavage
1,C24A C35G,0.173
2,C24U G68U,0.96
3,C24U G68C,0.928
4,C24A U69G,0.866
5,C24A U69A,0.825
6,C24U C33U,0.856
7,C24U C33A,0.465
8,C24U C33G,0.294
9,C24G U53C,0.235
10,C24G U53A,0.339
11,C24G U53G,0.177
12,C24G U36G,0.146
13,C24G U36C,0.171
14,C24G U36A,0.118
15,C24A A51G,0.754
16,C24A A51C,0.68
17,C24A G37A,0.229
18,C24A G37C,0.264
19,C24A U38C,0.517
20,C24A U38G,0.196
21,C24A U38A,0.393
22,C24U A59G,0.866
23,C24U A59C,0.281
24,C24G G28A,0.14

row,Variant,self-cleavage
1,C24G C54G,0.351
2,C24G C54A,0.267
3,C24A C33A,0.38
4,C24A C33G,0.33
5,C24A C33U,0.761
6,C24A U43G,0.427
7,C24A U43A,0.537
8,C24A A40G,0.591
9,C24A A40C,0.31
10,C24G G50U,0.441
11,C24G G50C,0.347
12,C24G G50A,0.392
13,C24G U62A,0.27
14,C24G U62G,0.203
15,G25A C33U,0.276
16,G25A C33A,0.206
17,G25A C33G,0.206
18,C24U U38A,0.418
19,C24U U38C,0.582
20,C24A C29A,0.27
21,C24A C29G,0.166
22,C24A C29U,0.158
23,G25A G28C,0.131
24,C24U U62A,0.441

row,Variant,self-cleavage
1,C24U U62C,0.505
2,C24G U26C,0.386
3,C24G A51C,0.323
4,C24G A51G,0.515
5,C24U C32G,0.211
6,C24U C32A,0.414
7,C24U U43A,0.679
8,C24U U43G,0.418
9,C24U U43C,0.691
10,C24G U67A,0.368
11,C24A C34A,0.262
12,C24A C34G,0.227
13,C24G C29A,0.184
14,C24G C39U,0.217
15,C24A U49A,0.815
16,C24G G47A,0.491
17,C24G G47U,0.508
18,C24A U64A,0.492
19,A23U U62A,0.635
20,C24G C33U,0.38
21,C24U C66G,0.346
22,C24U C66U,0.734
23,C24U C66A,0.331
